The source of these data is FireProtDB (doi:10.1093/protein/11.3.213).

The conditions of this data set: Escherichia phage lambda; pH 6.6; 25 °C; Thermal; Fluorescence; phosphate 0.1 M; reversible: yes; whole UniProt chain shown.

B1: Endolysin wild type, P03706 (protein)
chain: MVEINNQRKAFLDMLAWSEGTDNGRQKTRNHGYDVIVGGELFTDYSDHPRKLVTLNPKLKSTGAGRYQLLSRWWDAYRKQLGLKDFSPKSQDAVALQQIKERGALPMIDRGDIRQAIDRCSNIWASLPGAGYGQFEHKADSLIAKFKEAGGTVREIDV
On to B1, for which the unfolding free energy was determined as 14.8 kJ/mol.
